First the molecules themselves.
B1: intact FLT4 receptor (receptor)
chain: YSMTPPTLNITEESHVIDTGDSLSISCRGQHPLEWAWPGAQEAPATGDKDSEDTGVVRDCEGTDARPYCKVLLLHEVHANDTGSYVCYYKYIKARIEGTTAASSYVFVRDFEQPFINKPDTLLVNRKDAMWVPCLVSIPGLNVTLRSQSSVLWPDGQEVVWDDRRGMLVSTPLLHDALYLQCETTWGDQDFLSNPFLVHITGNELYDIQLLPRKSLELLVGEKLVLNCTVWAEFNSGVTFDWDYPGKQAERGKWVPERRSQQTHTELSSILTIHNVSQHDLGSYVCKANNGIQRFRESTEVIVHENPFISVEWLKGPILEATAGDELVKLPVKLAAYPPPEFQWYKDGKALSGRHSPHALVLKEVTEASTGTYTLALWNSAAGLRRNISLELVVNVPPQIHEKEASSPSIYSRHSRQALTCTAYGVPLPLSIQWHWRPWTPCKMFAQRSLRRRQQQDLMPQCRDWRAVTTQDAVNPIISLDTWTEFVQGKNKTVSKLVIQNANVSAMYKCVVSNKVGQDERLIYFYVTTIPDGFTIESKPSEELLEGQPVLLSCQADSYKYEHLRWYRLNLSTLHDAHGNPLLLDCKNVHLFATPLAASLEEVAPGARHATLSLSIPRVAPEHEGHYVCEVQDRRSHDKHCHKKYLSVQALEAPRLTQNLTDLLVNVSDSLEMQCLVAGAHAPSIVWYKDERLLEEKSGVDLADSNQKLSIQRVREEDAGRYLCSVCNAKGCVNSSASVAVEGSEDKGSMEIVILVGTGVIAVFFWVLLLLIFCNMRRPANADIKTGYLSIIMDPGEVPLEEQCEYLSYDASQWEFPRERLHLGRVLGYGAFGFVVEASAFGIHKGSSCDTVAVKMLKEGASASEHRALMSELKILIHIGNHLNVVNLLGACTKPQGPLMVIVEFCKYGNLSNFLRAKRDAFSPCAEKSPEQRGRFRAMVELARLDRRRPGSSDRVLFARFSKSEGGARRASPDQEAEDLWLSPLTMEDLVCYSFQVARGMEFLASRKCIHRDLAARNILLSESDVVKICDFGLARDIYKDPDYVRKGSARLPLKWMAPESIFDKVYTTQSDVMSFGVLLWEIFSLGASPYPGVQINEEFCQRLRDGTRMRAPELATPAIRRIMLNCWSGDPKARPAFSEVLEILGDLLQGRGLQEEEEVCMAPRSSQSSEEGSFSQVSTMALHIIQADAEDSPPSLQRHSLAARYYNWVSFPGCLARGAETRGSSRMKTFEEFPMTPTTYKGSVDNQTDSGMVLASEEFEQIESRHRQESGFSCKGPGQNVAVTRAHPDSQGRRRRPERGARGGQVFYNSEYGELSEPSEEDHCSPSARVTFFTDNSY
notes: Transiently expressed on 293 cells; also called entire human FLT4 receptor
B2: vascular endothelial growth factor VEGF165 (ligand, UniProt P15692-4 27-191, looked up)
chain: APMAEGGGQNHHEVVKFMDVYQRSYCHPIETLVDIFQEYPDEIEYIFKPSCVPLMRCGGCCNDEGLECVPTEESNITMQIMRIKPHQGQHIGEMSFLQHNKCECRPKKDRARQENPCGPCSERRKHLFVQDPQTCKCSCKNTDSRCKARQLELNERTCRCDKPRR
notes: mature; also called VEGF ligand
B3: flt-1(1, 2, 3)/FLT4 chimeric receptor (receptor)
chain: YSMTPPTLSLKGTQHIMQAGQTLHLQCRGEAAHKWSLPEMVSKESERLSITKSACGRNGKQFCSTLTLNTAQANHTGFYSCKYLAVPTSKKKETESAIYIFISDTGRPFVEMYSEIPEIIHMTEGRELVIPCRVTSPNITVTLKKFPLDTLIPDGKRIIWDSRKGFIISNATYKEIGLLTCEATVNGHLYKTNYLTHRQTNTIIDVQISTPRPVKLLRGHTLVLNCTATTPLNTRVQMTWSYPDEKNKRASVRRRIDQSNSHANIFYSVLTIDKMQNKDKGLYTCRVRSGPSFKSVNTSVRVHENPFISVEWLKGPILEATAGDELVKLPVKLAAYPPPEFQWYKDGKALSGRHSPHALVLKEVTEASTGTYTLALWNSAAGLRRNISLELVVNVPPQIHEKEASSPSIYSRHSRQALTCTAYGVPLPLSIQWHWRPWTPCKMFAQRSLRRRQQQDLMPQCRDWRAVTTQDAVNPIESLDTWTEFVEGKNKTVSKLVIQNANVSAMYKCVVSNKVGQDERLIYFYVTTIPDGFTIESKPSEELLEGQPVLLSCQADSYKYEHLRWYRLNLSTLHDAHGNPLLLDCKNVHLFATPLAASLEEVAPGARHATLSLSIPRVAPEHEGHYVCEVQDRRSHDKHCHKKYLSVQALEAPRLTQNLTDLLVNVSDSLEMQCLVAGAHAPSIVWYKDERLLEEKSGVDLADSNQKLSIQRVREEDAGRYLCSVCNAKGCVNSSASVAVEGSEDKGSMEIVILVGTGVIAVFFWVLLLLIFCNMRRPAHADIKTGYLSIIMDPGEVPLEEQCEYLSYDASQWEFPRERLHLGRVLGYGAFGKVVEASAFGIHKGSSCDTVAVKMLKEGATASEHRALMSELKILIHIGNHLNVVNLLGACTKPQGPLMVIVEFCKYGNLSNFLRAKRDAFSPCAEKSPEQRGRFRAMVELARLDRRRPGSSDRVLFARFSKTEGGARRASPDQEAEDLWLSPLTMEDLVCYSFQVARGMEFLASRKCIHRDLAARNILLSESDVVKICDFGLARDIYKDPDYVRKGSARLPLKWMAPESIFDKVYTTQSDVWSFGVLLWEIFSLGASPYPGVQINEEFCQRLRDGTRMRAPELATPAIRRIMLNCWSGDPKARPAFSELVEILGDLLQGRGLQEEEEVCMAPRSSQSSEEGSFSQVSTMALHIAQADAEDSPPSLQRHSLAARYYNWVSFPGCLARGAETRGSSRMKTFEEFPMTPTTYKGSVDNQTDSGMVLASEEFEQIESRHRQESGFSCKGPGQNVAVTRAHPDSQGRRRRPERGARGGQVFYNSEYGELSEPSEEDHCSPSARVTFFTDNSY
notes: Stably expressed in NIH 3T3 cells for thymidine incorporation; also called flt-1 domains 1-3/FLT4 chimeric receptor

The target of assay [1] is B2. Kind of assay: saturation binding of 125I-VEGF to transiently transfected 293 cells, background of non-transfected cells subtracted. The protocol: (§1) After preparation of these expression constructs, 293 cells were transfected with the constructs via DEAE-Dextran and transiently-expressing cells were analyzed for the ability to bind to the VEGF ligand. To detect binding of the VEGF ligand, a saturation binding assay was performed on transiently-expressing 293 cells expressing the intact FLT4 receptor, the flt-1 domain 2/FLT4 chimeric receptor, the flt-1 domains 1–3/FLT4 chimeric receptor, or the intact flt-1 receptor. […] The cell mixture was then layered over a 0.75 ml cushion of 30% sucrose, centrifuged for 10 minutes at maximum speed, and the pellet was recovered and counted in a gamma counter. […] The amount of counts added and the recovered counts bound were then subjected to scatchard analysis.

The target in assay [2] is T1, flt-1(2)/FLT4 chimeric receptor (human, UniProt P35916 25-1363).
T1 construct: Stably expressed in NIH 3T3 cells for thymidine incorporation; also called flt-1 domain 2/FLT4 chimeric receptor
Kind of assay: saturation binding of 125I-VEGF to transiently transfected 293 cells, Scatchard analysis. The protocol: as §1

Assay [3] deals with T2, flt(1,2): flt-1 Ig-like domains 1 and 2 only fused to the Fc of IgG (human, UniProt P01857-1 104-330 = IgG part, limits assumed).
T2 construct: domain: Fc of IgG; The true C-terminal limit may therefore be 225
T2 sequence (P01857 other isoform, or with tags, fused parts or gaps limits assumed): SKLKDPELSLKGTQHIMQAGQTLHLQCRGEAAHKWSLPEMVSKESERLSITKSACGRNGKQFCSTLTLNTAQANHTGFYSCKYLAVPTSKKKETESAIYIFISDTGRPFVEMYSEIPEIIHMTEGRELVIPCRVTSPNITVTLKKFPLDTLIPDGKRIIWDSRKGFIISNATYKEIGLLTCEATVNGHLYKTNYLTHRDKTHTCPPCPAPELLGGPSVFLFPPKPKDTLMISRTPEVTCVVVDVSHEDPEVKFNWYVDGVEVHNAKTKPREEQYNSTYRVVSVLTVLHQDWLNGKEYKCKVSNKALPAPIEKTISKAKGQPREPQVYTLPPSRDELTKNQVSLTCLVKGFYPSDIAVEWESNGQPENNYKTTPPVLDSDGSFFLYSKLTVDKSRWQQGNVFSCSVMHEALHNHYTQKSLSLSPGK
Nature of the assay: 125I-VEGF165 binding to chimeric protein captured on anti-human Fc coated plates (FIG. 4). The protocol:
(§2) Binding assays with the soluble chimeric VEGF receptors generated in Example 1 above were performed essentially as described by Park et al., *J. Biol. Chem.* 269:25646–25654 (1994). […] Plates were blocked for 1 hr with 10% fetal bovine serum in PBS (buffer B). After removal of the blocking buffer, 100 µl of a binding cocktail was added to each well. […] The specific activity of the iodinated VEGF was 5.69 ×10^7 cpm/microgram. Incubation in the coated wells proceeded for 4 hrs at room temperature, followed by 4 washes with buffer B. Binding was determined by counting individual wells in a gamma counter. Data was analyzed using a 4-parameter non-linear curve fitting program (Kalidagraph, Abelbeck Software).

The target in assay [4] is T3, flt(2): flt-1 Ig-like domain 2 only fused to the Fc of IgG (human, UniProt P01857-1 104-330 = IgG part, limits assumed).
T3 construct: domain: Fc of IgG
T3 sequence (P01857 other isoform, or with tags, fused parts or gaps limits assumed): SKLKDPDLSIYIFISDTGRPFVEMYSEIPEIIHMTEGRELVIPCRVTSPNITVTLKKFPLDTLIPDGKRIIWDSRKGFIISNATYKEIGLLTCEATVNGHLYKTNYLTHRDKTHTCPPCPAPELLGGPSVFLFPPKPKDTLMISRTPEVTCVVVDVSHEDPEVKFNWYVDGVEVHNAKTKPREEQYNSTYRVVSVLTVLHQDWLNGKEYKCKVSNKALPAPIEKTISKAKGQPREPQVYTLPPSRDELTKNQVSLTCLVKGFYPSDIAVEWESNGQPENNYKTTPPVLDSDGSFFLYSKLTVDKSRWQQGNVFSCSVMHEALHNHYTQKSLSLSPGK
Described as above. The procedure:
as §2

Assay [5] deals with T4, flt-1 extracellular domain/IgG Fc chimera (flt-1/IgG) (human, UniProt P17948 27-758).
T4 construct: Secreted from CEN4 cells and used as conditioned medium quantified by Fc ELISA; also called intact flt-1/IgG chimeric VEGF receptor protein; native flt-1/IgG; not shown: Fc of human IgG1 (amino acids 216-443 of the Capon IgG gamma-1 heavy chain clone)
T4 sequence (P17948 other isoform, or with tags, fused parts or gaps mutant limits assumed): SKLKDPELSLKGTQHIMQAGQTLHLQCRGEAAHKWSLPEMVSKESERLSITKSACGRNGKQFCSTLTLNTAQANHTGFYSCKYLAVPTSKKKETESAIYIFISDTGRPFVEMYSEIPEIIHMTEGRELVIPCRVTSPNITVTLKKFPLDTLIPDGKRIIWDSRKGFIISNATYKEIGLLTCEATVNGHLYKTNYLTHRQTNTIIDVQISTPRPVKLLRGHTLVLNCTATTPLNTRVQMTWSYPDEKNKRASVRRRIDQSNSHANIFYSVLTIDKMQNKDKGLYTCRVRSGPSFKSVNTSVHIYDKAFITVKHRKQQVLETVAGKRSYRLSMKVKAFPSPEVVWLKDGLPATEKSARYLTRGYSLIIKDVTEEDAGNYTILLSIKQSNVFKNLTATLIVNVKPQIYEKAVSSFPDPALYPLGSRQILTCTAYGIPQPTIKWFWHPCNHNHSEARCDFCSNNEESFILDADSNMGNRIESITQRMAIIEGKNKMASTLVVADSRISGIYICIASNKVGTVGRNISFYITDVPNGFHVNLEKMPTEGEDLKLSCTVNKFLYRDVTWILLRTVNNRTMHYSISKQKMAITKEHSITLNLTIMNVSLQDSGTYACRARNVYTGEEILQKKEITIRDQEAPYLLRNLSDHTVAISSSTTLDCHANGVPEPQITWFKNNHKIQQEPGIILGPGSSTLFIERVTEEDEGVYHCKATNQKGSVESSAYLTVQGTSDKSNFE
Nature of the assay: unlabeled VEGF titrated against 125I-VEGF165 binding to 1 ng immunoreactive flt-1/IgG on anti-Fc plates; 4-parameter fit (FIG. 5). The protocol: as §2
Binding assays were performed essentially as described above. […] This occurs at the point of inflection of the curve. […] Thus, the flt(1, 2, 3) deletion chimera behaves in a similar fashion to the intact flt-1/IgG chimeric protein with respect to binding to the VEGF ligand.

Assay [6] addresses B2. Kind of assay: saturation binding of 125I-VEGF to transiently transfected 293 cells, Scatchard analysis. The protocol: as §1

For the molecule B1, in assay [1], the binding result is recorded as “no binding”.

One may read the Kd as a measure of binding affinity in units of concentration. Low readings indicate tighter binding, high ones weaker binding. By IC50 is commonly meant the point on the concentration scale where inhibition reaches its midpoint. A low value points to inhibition by little substance. In assay [2], B2 yielded a Kd of around 0.0102 nM. Besides, the binding result in assay [3] and in assay [4] was “no binding” in each case. The same molecule came in with a concentration for half-maximal inhibition (IC50) in assay [5] of 1.89 ng/mL.

In assay [6], B3 had a Kd of around 0.0104 nM.

The record behind these values is patent US6897294 (Genentech, dated 2005).
